Assay type in all cases: biochemical
Series [1] addresses T1, MMP-1 (Homo sapiens, UniProt P03956).
T1 construct: Human MMP-1 catalytic domain (recombinant, produced in E. coli, 19.9 kDa, >95% purity); purchased Enzo Life Sciences (Farmingdale, N.Y.); host or cells: E. coli
T1 sequence (P03956 100-269 limits assumed): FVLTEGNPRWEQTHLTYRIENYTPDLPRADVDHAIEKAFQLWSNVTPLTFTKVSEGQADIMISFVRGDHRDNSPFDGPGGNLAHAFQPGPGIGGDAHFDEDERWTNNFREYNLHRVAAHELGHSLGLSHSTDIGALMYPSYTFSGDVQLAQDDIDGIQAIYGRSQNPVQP
Briefly: Kinetic study of MMP-1 cleavage (SDS-PAGE, Lineweaver-Burke plot). Particulars: substrate 25, 50, 100, 200 μM, enzyme 20 ng/mL, buffer, 40° C. The protocol:
We used mass spectrometry to examine the cleavage of the MMP-1 substrate peptide in the ELP-substrate fusion by measuring the molecular weight of the polypeptides prior to, and after incubation with MMP-1. We incubated 0.5 mL of 100 μM polypeptide in proteolysis buffer with 100 ng/mL of MMP-1 for 2 h at 25° C. […] For example, an enzymatic reaction can be written in general form as:
In which V0 is the initial rate of the enzymatic reaction at a given substrate concentration. Using equation Eq. 4, we can calculate Vmax by plotting 1/V0 versus 1/[S] at different substrate concentrations and a constant enzyme concentration and then calculate kcat by implementing equation Eq. 3.
We performed a series of kinetic studies in which the concentration of the substrate in the buffer solution was chosen to be 25, 50, 100, and 200 μM. We then added 20 ng/mL of enzyme to each of the solutions and kept all the solutions at a constant temperature (40′C). […] We quantified these changes by image analysis (ImageJ software) and used them to quantify the amount of product for each substrate concentration at each sampling time. We then calculated the initial rate of the reaction (V0) by using the concentration of the converted substrate and the time of reaction.
We then used equation Eq. 4 and plotted 1/[S] versus 1/[V0] […] From Vmax and equation Eq. 3, we calculated kcat to be equal to 8.0±1.9 s^−1. […]

Series [2] addresses T2, Human MMP-1 catalytic domain (Homo sapiens, UniProt P03956).
T2 construct: Human MMP-1 catalytic domain (recombinant, produced in E. coli, 19.9 kDa, >95% purity); purchased Enzo Life Sciences (Farmingdale, N.Y.); host or cells: E. coli
T2 sequence (P03956 100-269 limits assumed): T1 sequence (P03956 100-269 limits assumed)
Briefly: Time-dependent aggregation (OD350) of ELP-substrate fusion with MMP-1 in proteolysis buffer. The following applies: 50 ng/mL MMP-1, without the inhibitor, proteolysis buffer, 40° C., 100 μM.
Procedure: We performed the proteolysis reactions either in 100% protease buffer or in a mixture of human serum and buffer (40% (v/v) serum, 50% (v/v) buffer, 10% (v/v) ELP-substrate solution in water). The proteolysis buffer (100 mM HEPES, CaCl2 20 mM, MgCl2 1.0 mM, ZnCl2 100 μM, NaCl 0.5 M for diluted serum and 0.1 M for buffer solutions) was made experimentally in our lab based on previously published assays (Patterson, J. & Hubbell, J. A. Biomaterials 2010, 31, 7836-7845; Turk, B. E. et al., Nature Biotechnology 2001, 19, 661-667; Lowe, S. B. et al., Acs Nano 2012, 6, 851-857). We investigated proteolysis in two ways. In the first approach, we incubated solutions of the ELP-substrate fusion with MMP-1 (100 ng/mL) for 12 h at 40° C. temperature and measured the optical density at 350 nm (OD350) before and after the incubation. In the second approach, we incubated the ELP-substrate fusion with varying concentrations of MMP-1 (0.02 ng/mL to 200 ng/mL) in buffer or in diluted human serum, at 40° C. or 37° C. respectively, a temperature that is above the CMT of the ELP, and monitored the changes OD350 as a function of time (kinetic study). For the kinetic studies, we added the enzyme to the solution after the optical density of the solution reached a steady-state value and repeated the experiments at least three times. […]

The target in series [3] is T1, MMP-1. Description: Mass spectrometry of ELP-substrate fusion before and after incubation with MMP-1. The following applies: 100 μM polypeptide, 100 ng/mL MMP-1, 2 h at 25° C., proteolysis buffer. The protocol:
We confirmed the purity and molecular weight of the purified peptides by electrophoresis (10-20% gradient […] SDS-PAGE, Thermo Scientific, CA) and by matrix-assisted laser desorption/ionization mass spectrometry. Mass spectrometry samples were prepared by mixing the enzymatic reaction product with sinapinic acid in 1:10 ratio. 1 μL of the sample/matrix mixture was then loaded on the grid and the measurements were performed on a Voyager-DE-Pro instrument (Applied Biosystems, Germany). To determine the concentration of the ELP-substrate fusion solutions we used a calculated extinction coefficient (Gill, S. C. & Vonhippel, P. H. Analytical Biochemistry 1989, 182, 319-326) or lyophilized the polypeptide solution. We studied the thermal behavior of the ELP-substrate fusion constructs in both proteolysis buffer (see below) and diluted human serum in the presence and absence of MMP-1 using optical turbidimetry on a temperature-programmed UV-vis spectrometer (Cary 300, Agilent Technologies). To characterize the size of the micelles and aggregates, we used single angle dynamic light scattering (DLS; DynaPro, Protein Solution).
We used mass spectrometry to examine the cleavage of the MMP-1 substrate peptide in the ELP-substrate fusion by measuring the molecular weight of the polypeptides prior to, and after incubation with MMP-1. […]

In the case of “M(GVGVP)60GDGQVPMSMRGGDDEGQQDDEEGY (MGVGVPGDGQVPMSMRGGDDEGQQDDEEGY) [ELP-substrate fusion, recombinant polypeptide: ELP fused to MMP-1 substrate and charged hydrophilic peptide]”, in the series with MMP-1 [1], the kcat – broadly, the maximal rate divided by the concentration of active sites – stood at 8.0 ± 1.9 s⁻¹. The aggregation time result in series [2] was “less than 50 min”. Besides, the “cleavage of the MMP-1 substrate peptide (mass spectrometry)” value with MMP-1 [3] is listed as “most of the 1.8 kDa MMP-sensitive peptide is cleaved off”.

The record behind these values is patent US20160348147A1, “SYSTEMS AND DEVICES FOR PROTEASE DETECTION BASED ON ENGINEERED POLYMERS AND BIOPOLYMERS AND METHODS OF USE” (DUKE UNIVERSITY, priority 2014, published 2016).
